These results are taken from the DeepSol protein solubility set.

The data set is described as follows: soluble on expression in E. coli; label from the status in PepcDB or PDB records.
Regarding “MIQIEQIRTGVIQENCYLVYNEEALLIIDPGAEGAKLIQEITRLGKKPAAILLTHTHYDHIGAVEELRHHYQIPVYVSPLEQAWLSNPILNLSGLGRHDDIANIIVQPAEHEFKLTDYEIGGMKFSVVPTPGHSIGSVSFVFDDFVVVGDALFKGSIGRTDLHTGDMQQLLHSITTYLFTLPEEFPVYPGHGDATTIQHEKATNPFFN”, the “soluble on expression in E. coli” value is reported as “not soluble”.

Take “MAHHHHHHMQQSLKNQEHIWAVLQKMRMEMNECFAEHERMLRQAHGQLKERLDKIESAFVARNGGVGQLVGNSSSSLGHLDHATPVYTRFVSDKKGSPAGMRVTMLSTPPNERMQLMPPDSRGARSDVLPQPVDPTDWVALAAPSRQEATPAVSPHNRWTNDDSIHAEKTPSVDATCFEALNNLMNDDDFQHSTLESVIPSYTQDDDSKQLQSQPNLGTYTKKNDIIHMGAPGSSQTQHFTKSLKVTYMDGRPQAVPIPDGPPDEPDKLGIDVNAQCKVLVEFKRKRVLQFESKEYVPPGSYVMVGGDRGEDLGLVTYTWCETTKSLKGELGEFGNGSNKTVVLCVGLTGSTLTRSIGLGAGTVLRLADDSDVKQLHTVQVELERRAIDVCSQRVLERGLPMTIVDAEYQFDKKKLTFFYEAQQRMDFRELVRDLYKSFRARIWMELVEN”: the “soluble on expression in E. coli” value is given as “not soluble”.

For “MSLGKGEKFQIEFVSANPTGDLHLGHARGAAIGDSLANIMKMAGFDVSREYYINDAGNQINNLVLSAEARYFEALGLDSEFPEDGYRGADIISLGKDLAAKYGDKYVHTSEEERRSVFRVDALAFETGKLRADLEEFRVSFDEWFSETSLYEENKVLPALERLRENGYIYEQDGATWLRTTDFEDDKDRVLIKSDGSYTYFLPDIAYHLNKLERGFDVLIDIWGADHHGYIPRMRAAIEALGYSPNQLEVEIIQLVHLFEDGVQVKMSKRTGKSVTMRDLIEEVGLDATRYFFAMRSSDTHMNFDMSLAKSTSNDNPVYYVQYAHARISSILRSGKEQGLEVTKDADMSLLQTEAEYDLLKVLGEFADVVAEAATKRAPHRIVRYLNDLASSFHRFYNSNKVLDMDNLEVTKARLALIKTAQITLRNGLTLLGVSAPEKEGHHHHHH”, the “soluble on expression in E. coli” value is on record as “not soluble”.

For the sequence “MRGSHHHHHHGSACCASRDDWRCARSMHEFSAKDIDGHMVNLDKYRGFVCIVTNVASQCGKTEVNYTQLVDLHARYAECGLRILAFPCNQFGKQEPGSNEEIKEFAAGYNVKFDMFSKICVNGDDAHPLWKWMKIQPKGKGILGNAIKWNFTKFLIDKNGCVVKRYGPMEEPLVIEKDLPHYF”, the “soluble on expression in E. coli” value was “soluble”.

Take “GFILKRGWTVLESKYLDLLAQKYDCEEKVVTEIINLKAILNLPKGTEHFVSDLHGEYQAFQHVLRNGSGRVKEKIRDIFSGVIYDREIDELAALVYYPEDKLKLIKHDFDAKEALNEWYKETIHRMIKLVSYCSSKYTRSKLRKALPAQFAYITEELLYKTEQAGNKEQYYSEIIDQIIELGQADKLITGLAYSVQRLVVDHLHVVGDIYDRGPQPDRIMEELINYHSVDIQWGNHDVLWIGAYSGSKVCLANIIRICARYDNLDIIEDVYGINLRPLLNLAEKYYDDNPAFRPKADENRPEDEIKQITKIHQAIAMIQFKLESPIIKRRPNFNMEERLLLEKIDYDKNEITLNGKTYQLENTCFATINPEQPDQLLEEEAEVIDKLLFSVQHSEKLGRHMNFMMKKGSLYLKYNGNLLIHGCIPVDENGNMETMMIEDKPYAGRELLDVFERFLREAFAHPEETDDLATDMAWYLWTGEYSSLFGKRAMTTFERYFIKEKETHKEKKNPYYYLREDEATCRNILAEFGLNPDHGHIINGHTPVKEIEGEDPIKANGKMIVIDGGFSKAYQSTTGIAGYTLLYNSYGMQLVAHKHFNSKAEVLSTGTDVLTVKRLVDKELERKKVKETNVGEELLQEVAILESLREYRY”: the “soluble on expression in E. coli” value is reported as “not soluble”.

In the case of “MGSDKIHHHHHHMAFTNNVMIVRHKLLAKLVNLWKENKLTNEIDRLPIELSPRRSRPLGRCCIHKERAVYKYKLFPLLGFDMTDETDELTSLSEYARQALERKNKQKENILCVIDEACSSCVQVNYEVTNLCRGCVARSCYMNCPKDAIRFRKNGQAKIDHDACISCGKCHQSCPYHAIVFIPVPCEEACPVKAISKDENGIEHIDESKCIYCGKCLNACPFGAIFEISQAFDVLEGIRSGEKMIAIPAPSILGQFNTSIEAVYGALRQMGFADVVEVAQGAMDTVSHEAAELKEKLEEGQPFMTTSCCPSYIELVNKHIPGMKPYVSSTGSPMYYAARIAKERHPDAKIVFIGPCVAKRKEARRDECVDYILTFEEMASIFEGLDIQLEQTQPFSVLYTSVREAHGFAQAGGVMGAIKAYLGEEAKKFSAIQVSDLNKKNIGLLRAAAKTGKAQGQFIEVMACEGGCISGPSAHNDAIGGRRQLNQELIKRRESYEETHR”, the “soluble on expression in E. coli” value is on record as “not soluble”.

Consider “MIGMVNVQCDTPLDYYATAPNLLSRDTSVRKRGDSESANASRHNSTKRTPSWRPLFTGQGKKKSSKPKYLQDGRKMTEDGHDEPNKLWEELFLRSFAHKIEQEISSPSPLEAHKNLNSELSKLNIQDKSFYRSTYSLVSPTRIENTDFEELERIENQEKTQDDSKPNRSNSSTERPSSQICSVFLPFIKTIKGNKKKNSITSVNNNTKNS”, for which the “soluble on expression in E. coli” value is on record as “not soluble”.

Turning to “PFEGNATEVFTDGYSMLYSLMKEISKAKHHIHLQFYIFEDDPAGRLLRDLLIDKARQGVEVRLLYDDVGCWKVPHAFFDEMRGAGIEARSFLKVRFPLFTSKVNYRNHRKIVVIDGRVAYTGGMNIALRYMKGFPWGIWRDTHIKIEGKAVYGLQTAFLTDWYVVDRTLITSSRYFPEVGIFGKALIQIVTSDP”, the “soluble on expression in E. coli” value was “not soluble”.

“SLIRMIRKFKVKGLRSPSLLIDMILNDTEEGILVVETDGEEQIKDIEKLLKKYNLKYEVDGNVVKIYVGEIKADKTINVVGATCPGPIMMVSDMLSKMKNGEILEIICGKNSLTDLTEGLKGMGNEIIKVEDKGDGTYRILVKKGEKKEEKAAVTKIDELFIINTTGTGNAEKAYATFMMADVALKMNLKPTIFLMMDGASLALKGECDRVKHPAFPKLGDLVRDILSKGVKIYVCELSAEFRGINEKNLEEGFEIAGAPTFLNYLSKPNVRPVWL”: the “soluble on expression in E. coli” value was “soluble”.

On to “MKRLLLYVHFNKYNRVSSHVVYQLTQMRSLFSKVIFISNSQVADADVKMLREKHLIDDFIQRQNSGFDFAAWRDGMVFVGFDELVTYDSVTTMNDTCFGPLWEMYSIYQEFETKTTVDFWGLTNNRATKSFREHIQSYFISFKASVLRSTAFRDFWENIKEYQDVQKVIDQYETKVTTTLLDAGFQYDVVFDTTKEDASHMLHADFSYYNPTAILNHRVPFIKVKAIDNNQHITPYLLNDIQKNSTYPIDLIVSHMSEINYPDFSYLLGHKYVKKRERVDLKNQKAAVHLHVFYVDLLEEFLTAFKQFHFSYDLFITTDSDDKKAEIEEILSANSQEAQVFVTGNIGRDVLPMLKLKNYLSTYDFVGHFHTKKSKEADFWAGQSWREELIDMLVKPADNILAQLQQNPKIGLVIADMPTFFRYNKIVDAWNEHLIAPEMNTLWQKMGMTKKIDFNAFHTFVMSYGTFVWFKYDALKPLFDLNLTDDDVPEEPLPQNSILHAIERLLIYIAWNEHYDFRISLEHHHHHH”, for which the “soluble on expression in E. coli” value was “not soluble”.

For “HYNLKASNDAKIMKTLKEARQYEQSAKPTHIQQYFKHLGQMNYQIMTVDQKGHKTFYGEPFREDTLSQNAINNVLNNKDYHGIKDKPFALFVTGFFDNVTDNTVGINFKTKDGSIAVFMRPDIGETFSEFRT”, the “soluble on expression in E. coli” value is listed as “not soluble”.

On to “MKKSHYSVIIVGGGQAGLAISYLLKQESIDHVIFEKNQIGHAWRNQRWDSFCLVTPNWQCRLPGFPYAGGDDQGFMLKDEIVQYLEDYAASFQAPILEGVEVSKLSQRTDAFEVITSQGIYTADQVVVATGGYHTPKIAAIAKKLPPHIVQLHSVDYKNPETLPDRILLVGTGQSGCQIAEDLHLAGKTVHLATGSAPRSPRRYRGRDVVEWLELMGHYDLPIDEHPQKEMVRHKTNHYLTGRDGGREIDLRQFALEGMHLYGRLKDIDGNQILFADNLKENLDQADATAARIKQSIDEYIAKNQLDAPIEAPYQPVWEPTSIPLTLNIDEIDAVIWSTGFNFNYAWVDVPVFNSMGEPLHNRGVTNVAGLYFLGLPWLYTWGSGRFSGVARDAEYLAEKIRETLPANQINPCTVALEHHHHHH”, for which the “soluble on expression in E. coli” value is recorded as “not soluble”.

With “MAPSTPLLTVRGSEGLYMVNGPPHFTESTVFPRESGKNCKVCIFSKDGTLFAWGNGEKVNIISVTNKGLLHSFDLLKAVCLEFSPKNTVLATWQPYTTSKDGTAGIPNLQLYDVKTGTCLKSFIQKKMQNWCPSWSEDETLCARNVNNEVHFFENNNFNTIANKLHLQKINDFVLSPGPQPYKVAVYVPGSKGAPSFVRLYQYPNFAGPHAALANKSFFKADKVTMLWNKKATAVLVIASTDVDKTGASYYGEQTLHYIATNGESAVVQLPKNGPIYDVVWNSSSTEFCAVYGFMPAKATIFNLKCDPVFDFGTGPRNAAYYSPHGHILVLAGFGNLRGQMEVWDVKNYKLISKPVASDSTYFAWCPDGEHILTATCAPRLRVNNGYKIWHYTGSILHKYDVPSNAELWQVSWQPFLDGIFPAKTITYQAVPSEVPNEEPKVATAYRPPALRNKPITNSKLHEEEPPQNMKPQSGNDKPLSKTALKNQRKHEAKKAAKQEARSDKSPDLAPTPAPQSTPRNTVSQSISGDPEIDKKIKNLKKKLKAIEQLKEQAATGKQLEKNQLEKIQKETALLQELEDLKLGI”, the “soluble on expression in E. coli” value is reported as “soluble”.

With “MGSDKIHHHHHHMSASLNYKSFSKEQQTMDNLEKQLICPICLEMFTKPVVILPCQHNLCRKCASDIFQASNPYLPTRGGTTMASGGRFRCPSCRHEVVLDRHGVYGLQRNLLVENIIDIYKQESTRPEKKSDQPMCEEHEEERINIYCLNCEVPTCSLCKVFGAHKDCQVAPLTHVFQRQKSELSDGIAILVGSNDRVQGVISQLEDTCKTIEECCRKQKQELCEKFDYLYGILEERKNEMTQVITRTQEEKLEHVRALIKKYSDHLENVSKLVESGIQFMDEPEMAVFLQNAKTLLKKISEASKAFQMEKIEHGYENMNHFTVNLNREEKIIREIDFYR”, the “soluble on expression in E. coli” value is listed as “not soluble”.
